# Laboratory results from US20240270866A1 (Alector, published 2024).
# T1: mouse SIRPA overexpressed on CHO cells (mouse, UniProt P97797 32-513)
# T1 construct: also called CHO-muSIRPA
# T1 sequence: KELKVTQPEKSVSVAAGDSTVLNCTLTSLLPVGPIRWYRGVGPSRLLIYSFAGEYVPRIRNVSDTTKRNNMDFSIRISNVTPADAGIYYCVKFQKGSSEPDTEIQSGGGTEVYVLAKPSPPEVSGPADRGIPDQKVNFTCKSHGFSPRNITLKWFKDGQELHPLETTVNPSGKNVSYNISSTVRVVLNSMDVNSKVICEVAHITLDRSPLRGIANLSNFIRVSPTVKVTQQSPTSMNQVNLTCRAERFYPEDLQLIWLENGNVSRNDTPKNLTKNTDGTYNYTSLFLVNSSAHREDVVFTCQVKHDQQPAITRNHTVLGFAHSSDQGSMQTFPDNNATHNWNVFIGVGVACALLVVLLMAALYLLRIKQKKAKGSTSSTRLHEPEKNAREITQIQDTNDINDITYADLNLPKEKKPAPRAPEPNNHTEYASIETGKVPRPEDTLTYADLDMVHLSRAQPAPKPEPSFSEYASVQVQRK
# T2: Mouse SIRPA D1 Fc (mouse, UniProt P97797 32-150, limits assumed)
# T2 sequence: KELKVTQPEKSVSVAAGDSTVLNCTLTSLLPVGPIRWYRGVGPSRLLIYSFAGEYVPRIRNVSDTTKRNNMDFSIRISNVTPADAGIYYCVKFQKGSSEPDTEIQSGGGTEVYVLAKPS
# Legend:
# [1] = target: T1, mouse SIRPA overexpressed on CHO cells; experiment: flow, CHO-muSIRPA;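 on relative MFI: antibody binding measured by flow cytometry: cells stained with 1 ug/ml test antibody for 1 h on ice, detected with PE-labelled secondary antibody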
# Human SIRPA D1 Fc = target: T3, Human SIRPA D1 Fc (human, UniProt P78324 32-137); experiment: ForteBio IgG avid;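 further: antibody IgG captured on AHQ biosensors, then 100 nM Fc-fused SIRP antigen applied for 3 min, followed by 3 min buffer dissociation, kinetics fitted to a 1:1 model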
# T3 construct: not shown: human IgG1 Fc
# Mouse SIRPA D1 Fc = target: T2, Mouse SIRPA D1 Fc; experiment: ForteBio IgG avid;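 further: antibody IgG captured on AHQ biosensors, then 100 nM Fc-fused SIRP antigen applied for 3 min, followed by 3 min buffer dissociation, kinetics fitted to a 1:1 model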
# Method: (§1) Briefly, ForteBio affinity measurements were performed by loading IgGs on-line onto AHQ sensors. Sensors were equilibrated off-line in assay buffer for 30 min and then monitored on-line for 60 seconds for baseline establishment. For avid binding measurement, sensors with loaded IgGs were exposed to 100 nM antigen (human SIRPA or SIRPβ1 Fc fusion) for 3 min, afterwards they were transferred to assay buffer for 3 min for off-rate measurement. Additional avid binding was determined by loading biotinylated SIRPA monomer on SA sensors and exposure to 100 nM IgG in solution. Monovalent binding measurements were obtained by loading human SIRPA or SIRPβ1 Fc fusion antigens to AHQ sensor and followed by exposure to 100 nM anti-SIRPA antibody Fab. Additional monovalent measurements were made by loading biotinylated human SIRPA or SIRPβ1 monomer to SA sensor followed by exposure to 100 nM Fab in solution. Kinetics data were fit using a 1:1 binding model in the data analysis software provided by ForteBio.
# Human SIRPb D1 Fc = Human SIRPb D1 Fc (human, UniProt O00241 30-148, limits assumed); experiment: ForteBio IgG avid;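 further: antibody IgG captured on AHQ biosensors, then 100 nM Fc-fused SIRP antigen applied for 3 min, followed by 3 min buffer dissociation, kinetics fitted to a 1:1 model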
# Method: as §1
# [2] = target: T4, human SIRPA overexpressed on CHO cells (human, UniProt P78324 31-504); experiment: flow, CHO-huSIRPA;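 further: Anti-SIRPA antibodies applied at 1 µg/mL for 1 h on ice, binding read by flow cytometry using a PE-labelled secondary antibody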
# T4 construct: also called CHO-huSIRPA
# [3] = target: T1, mouse SIRPA overexpressed on CHO cells; experiment: flow, CHO-muSIRPA; remark: listed apart in the source;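 on relative MFI: antibody binding measured by flow cytometry: cells stained with 1 ug/ml test antibody for 1 h on ice, detected with PE-labelled secondary antibody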
# Human SIRPb D1 Fc, sequence (O00241 30-148 limits assumed): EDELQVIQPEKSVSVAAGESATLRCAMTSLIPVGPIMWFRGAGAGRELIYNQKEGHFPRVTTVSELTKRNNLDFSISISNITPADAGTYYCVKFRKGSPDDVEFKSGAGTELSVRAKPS
Binder,binding result [1],Kd (Human SIRPA D1 Fc),binding result (Mouse SIRPA D1 Fc),binding result (Human SIRPb D1 Fc),relative MFI [2],relative MFI [3],Kd (Human SIRPb D1 Fc)
"SA-36 (antibody, V domains shown, IgG) VH: not shown VL: EIVLTQSPATLSLSPGERATITCQASQDISSYLAWYQQKPGQAPRLLIYDASNRATGIPARFSGSGSGTDFTLTISSLEPEDFAVYYCQQRTHYPWTFGGGTKVEIK",no binding (tested: 1 ug/ml),8.67 nM,no binding (tested: 100 nM),no binding (tested: 100 nM),27.9 fold over background,0.574 fold over background,–
"SA-32 (antibody, V domains shown, IgG) VH: not shown VL: EIVMTQSPATLSVSPGERATLSCRASQSVGSNLAWYQQKPGQAPRLLIYGASTRATGIPARFSGSGSGTEFTLTISSLQSEDFAVYYCQQLNVFPWTFGGGTKVEIK",no binding (tested: 1 ug/ml),24.4 nM,no binding (tested: 100 nM),no binding (tested: 100 nM),35.4 fold over background,0.685 fold over background,–
"SA-43 (antibody, V domains shown, IgG) VH: QLQLQESGPGLVKPSETLSLTCTVSGGSISSSSYAWGWIRQPPGKGLEWIGSIYYSGSTYYNPSLKSRVTISVDTSKNQFSLKLSSVTAADTAVYYCARELETSRHDIWGQGTTVTVSS VL: DIQMTQSPSSVSASVGDRVTITCRASQGISSWLAWYQQKPGKAPKLLIYAASSLQSGVPSRFSGSGSGTDFTLTISSLQPEDFATYYCQQASAFPITFGGGTKVEIK",no binding (tested: 1 ug/ml),10.5 nM,no binding (tested: 100 nM),no binding (tested: 100 nM),0.56 fold over background,0.479 fold over background,–
"SA-39 (antibody, V domains shown, IgG) VH: QVQLVQSGAEVKKPGASVKVSCKASGYTFTSYYMVWVRQAPGQGLEWMGIINPSGGSTSYAQKFQGRVTMTRDTSTSTVYMELSSLRSEDTAVYYCAREGGYGYRAYPYGMDVWGQGTTVTVSS VL: DIQMTQSPSSLSASVGDRVTITCQASQDISNSLNWYQQKPGKAPKLLIYDASNLETGVPSRFSGSRSGTDFTFTISSLQPEDIATYYCQQVIILPLTFGGGTKVEIK",no binding (tested: 1 ug/ml),3.62 nM,no binding (tested: 100 nM),–,1.47 fold over background,0.571 fold over background,22.3 nM
"SA-38 (antibody, V domains shown, IgG) VH: QVQLQESGPGLVKPSQTLSLTCTVSGGSISSGGYYWSWIRQHPGKGLEWIGSIYYSGSTYYNPSLKSRVTISVDTSKNQFSLKLSSVTAADTAVYYCAREGAYSLYVNWFDPWGQGTLVTVSS VL: EIVMTQSPATLSVSPGERATLSCRASQSVSSSLAWYQQKPGQAPRLLIFGASTRATGIPARFSGSGSGTEFTLTISSLQSEDFAVYYCQQYDNYPPITFGGGTKVEIK",no binding (tested: 1 ug/ml),3.81 nM,no binding (tested: 100 nM),no binding (tested: 100 nM),2.96 fold over background,0.458 fold over background,–
"SA-27 (antibody, V domains shown, IgG) VH: QLQLQESGPGLVKPSETLSLTCTVSGGSISSSSYYWGWIRQPPGKGLEWIGSIYYSGSTYYNPSLKSRVTISVDTSKNQFSLKLSSVTAADTAVYYCARDSDKVALDLWGRGTLVTVSS VL: not shown",no binding (tested: 1 ug/ml),4.43 nM,no binding (tested: 100 nM),no binding (tested: 100 nM),0.722 fold over background,0.619 fold over background,–
"SA-28 (antibody, V domains shown, IgG) VH: QVQLQESGPGLVKPSQTLSLTCTVSGGSISSGGYYWSWIRQHPGKGLEWIGNIYYSGSTYYNPSLKSRVTISVDTSKNQFSLKLSSVTAADTAVYYCARDSDTSWGGFDYWGQGTLVTVSS VL: EIVLTQSPGTLSLSPGERATLSCRASQSVRSSYLAWYQQKPGQAPRLLIYGASSRATGIPDRFSGSGSGTDFTLTISRLEPEDFAVYYCQQAGVSPYTFGGGTKVEIK",no binding (tested: 1 ug/ml),6.67 nM,no binding (tested: 100 nM),no binding (tested: 100 nM),0.775 fold over background,0.467 fold over background,–

# Now from value to binder:
binding result [1],Kd (Human SIRPA D1 Fc),binding result (Mouse SIRPA D1 Fc),binding result (Human SIRPb D1 Fc),relative MFI [2],relative MFI [3],Kd (Human SIRPb D1 Fc),Binder
no binding (tested: 1 ug/ml),4.55 nM,no binding (tested: 100 nM),no binding (tested: 100 nM),0.595 fold over background,0.479 fold over background,–,"SA-29 (antibody, V domains shown, IgG) VH: QVQLQESGPGLVKPSQTLSLTCTVSGGSISSGGYYWSWIRQHPGKGLEWIGNIYYSGSTYYNPSLKSRVTISVDTSKNQFSLKLSSVTAADTAVYYCARDSDTSWGGFDYWGQGTLVTVSS VL: not shown"
no binding (tested: 1 ug/ml),10.2 nM,no binding (tested: 100 nM),no binding (tested: 100 nM),1.27 fold over background,0.464 fold over background,–,"SA-37 (antibody, V domains shown, IgG) VH: QVQLQESGPGLVKPSQTLSLTCTVSGGSISSGGYYWSWIRQHPGKGLEWIGSIYYSGSTYYNPSLKSRVTISVDTSKNQFSLKLSSVTAADTAVYYCAREGAYSLYVNWFDPWGQGTLVTVSS VL: EIVLTQSPGTLSLSPGERATLSCRASQSVSSSFLAWYQQKPGQAPRLLIYGASSRATGIPDRFSGSGSGTDFTLTISRLEPEDFAVYYCQQYDGVPITFGGGTKVEIK"
no binding (tested: 1 ug/ml),6.47 nM,no binding (tested: 100 nM),no binding (tested: 100 nM),12.4 fold over background,0.509 fold over background,–,"SA-31 (antibody, V domains shown, IgG) VH: QVQLVQSGAEVKKPGSSVKVSCKASGGTFSSYAISWVRQAPGQGLEWMGSIIPIFGTANYAQKFQGRVTITADESTSTAYMELSSLRSEDTAVYYCARDRGYPRYSYLDLWGRGTLVTVSS VL: EIVLTQSPGTLSLSPGERATLSCRASQSVSSSYLAWYQQKPGQAPRLLIYGASSRATGIPDRFSGSGSGTDFTLTISRLEPEDFAVYYCQQFFSYPPTFGGGTKVEIK"
no binding (tested: 1 ug/ml),26.8 nM,no binding (tested: 100 nM),no binding (tested: 100 nM),0.806 fold over background,0.613 fold over background,–,"SA-34 (antibody, V domains shown, IgG) VH: QVQLVQSGAEVKKPGASVKVSCKASGYTFTNYGISWVRQAPGQGLEWMGWISAYNGNTNYAQKLQGRVTMTTDTSTSTAYMELRSLRSDDTAVYYCARDVYSSYSYWGQGTLVTVSS VL: DIQLTQSPSTLSASVGDRVTITCRASQSISSWLAWYQQKPGKAPKLLIYDASSLESGVPSRFSGSGSGTEFTLTISSLQPDDFATYYCQQYELLPPTFGGGTKVEIK"
no binding (tested: 1 ug/ml),10.2 nM,no binding (tested: 100 nM),no binding (tested: 100 nM),48.2 fold over background,0.491 fold over background,–,"SA-35 (antibody, V domains shown, IgG) VH: QVQLVQSGAEVKKPGASVKVSCKASGYTFTSYYMHWVRQAPGQGLEWMGIINPSGGSTSYAQKFQGRVTMTRDTSTSTVYMELSSLRSEDTAVYYCAREAGYDIKGFDYWGQGTLVTVSS VL: DIQMTQSPSTLSASVGDRVTITCRASQSISSWLAWYQQKPGKAPKLLIYKASSLESGVPSRFSGSGSGTEFTLTISSLQPDDFATYYCQQYGSFPLTFGGGTKVEIK"
